Experimental data as given in patent publication US20130109581A1, “POSITIVELY CHARGED SPECIES AS BINDING REAGENTS IN THE SEPARATION OF PROTEIN AGGREGATES FROM MONOMERS” (priority 2009, published 2013).

Target: Abeta 1-40 monomer (UniProt P05067)
Test: MPA bead capture, Abeta 1-40 read-out of the CSF sample (noise)

| Substance | average RLU (40) [RLU] |
| --- | --- |
| AAAKAA (peptide) | 134 |
| AAKKAA (peptide) | 147 |
| AAKKKA (peptide) | 159 |
| AKKKKA (peptide) | 156 |
| AKKKKK (peptide) | 176 |
| ANFFAHSS (peptide) | 543 |
| DFKLNFKF (peptide) | 260 |
